The series is described as follows: amyloid nucleation score (Sup35N fusion, yeast selection) (log enrichment); library NNK3; higher = more nucleation; inactive = no reads after selection. In a few lines:
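Peptides of 20 random codons, each fused to Sup35N, were expressed in psi-negative yeast. Cells were induced with 100 μM copper sulfate for 24 hours and grown 7 days at 30°C on medium lacking adenine and uracil, and plasmid inserts before and after selection were Illumina-sequenced. Nucleation scores are DiMSum log enrichments of output over input reads, centred on the mode score of non-aggregating sequences, and sequences under 100 input reads were excluded.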

± gives the uncertainty stated by the source.

On to GSIVFGCSWASQSVCQDQWV, for which the amyloid nucleation score entry was “inactive”.

The substance TSESAIAVRWSVFSPWPLGF yielded an amyloid nucleation score of 0.643 ± 0.15.

On to IVADLHIHCEPRFSSHLTYE, for which the amyloid nucleation score result was “inactive”.

As for SFFLVSWLGALTVVIPVQ, the amyloid nucleation score result is “inactive”.

Turning to EASLSGGYTEYVGDFMRLVT, the amyloid nucleation score result was “inactive”.

As for FGMKTYRLQIGYNITVCHSI, the amyloid nucleation score is -0.603 ± 0.58.

Consider YRNELCYIQRRYLPYGRWTA, for which the amyloid nucleation score result was “inactive”.

As for EDQLL, the amyloid nucleation score is -0.077 ± 0.54.

Take DTTFMQYVAIYVLVSKLFIE: the amyloid nucleation score entry is “inactive”.

In turn, LVIVFCMVFLTFIF yielded an amyloid nucleation score of 0.545 ± 0.13.

With SCGTCKTSFIKR, the amyloid nucleation score result is “inactive”.

In the case of SRSVSESDVMGTVGIYAEFS, the amyloid nucleation score result was “inactive”.

Consider LDMPCILLYLRSNWGRFG, for which the amyloid nucleation score result is “inactive”.

HLLTAVILITIGVNRVTWWG: the amyloid nucleation score entry was “inactive”.

With ICRHLSIGG, the amyloid nucleation score result was “inactive”.

With VIIPNFWLFEGLRAGKRRG, the amyloid nucleation score result is “inactive”.

Substance FKYLWADREVNVGQKHSVIG came in with an amyloid nucleation score of -0.174 ± 0.7.

As to YISSFKFRLSCLRYQIVNSV, the amyloid nucleation score result was “inactive”.

For the substance VCNMYFSFIRNLRGFNRNQC, the amyloid nucleation score was found to be 2.06 ± 0.062.

Take TVDMSKPGYIWFSSDRSRYW: the amyloid nucleation score result is “inactive”.

YKCHMSVYRGFINCNVVLMR: the amyloid nucleation score entry is “inactive”.

For RLITNNVTS, the amyloid nucleation score result was “inactive”.

For TYKRIPYELTRSGTKPLYTP, the amyloid nucleation score result is “inactive”.

As to NVRTLNSLDDLGVSFSSACT, the amyloid nucleation score result was “inactive”.

For the substance LIYRSLPFSCLSSGV, the amyloid nucleation score result was “inactive”.

With VCNMRVYI, the amyloid nucleation score result was “inactive”.

Turning to HCFIDNKMLPYVMCYPDKKR, the amyloid nucleation score entry was “inactive”.

For FRLRYRYFCRGRGCMDDLEY, the amyloid nucleation score is -0.288 ± 0.8.

LGWGHACMKFVDHCVRSSRS: the amyloid nucleation score result was “inactive”.

Consider VTNPLGPFMDRF, for which the amyloid nucleation score result is “inactive”.

IMEIMVNTWGNVTVRNSWRL yielded an amyloid nucleation score of 1.23 ± 0.14.

QSKSYFTL: the amyloid nucleation score result is “inactive”.

With DPFVRDIWQREYQWES, the amyloid nucleation score result is “inactive”.

With KSHPLNSVPEKLMLVWRSWK, the amyloid nucleation score result is “inactive”.

Consider DSCKPCQKPTAIHVYMVEFP, for which the amyloid nucleation score result is “inactive”.

As to SLLDGTYYNTI, the amyloid nucleation score entry was “inactive”.

Turning to FCFYRKKGVVGCILFYACFR, the amyloid nucleation score result is “inactive”.

Turning to VYLDFKGWFVMLSINLNQFY, the amyloid nucleation score result is “inactive”.

With CNPLFTYNKPSVDKSV, the amyloid nucleation score entry was “inactive”.

Turning to KCGIQLICMWFS, the amyloid nucleation score was 1.47 ± 0.14.

Take DKGQRVNSSGRVCNMNMGYW: the amyloid nucleation score entry was “inactive”.

Regarding FLRNIFDGRTWTFKDSNMSH, the amyloid nucleation score entry is “inactive”.

Consider KNQYSNSRLWYGALECHAPG, for which the amyloid nucleation score result is “inactive”.

Take TIISCFREKIGLSRM: the amyloid nucleation score result was “inactive”.

The substance IWKGCSACFGKD came in with an amyloid nucleation score of -0.222 ± 1.2.

For the substance DMCEGYVNYCRMHRAMRHDD, the amyloid nucleation score result was “inactive”.

Turning to RAVTSWYVVRWFIRYNTSNA, the amyloid nucleation score entry was “inactive”.

On to SIYCTLRVVGT, for which the amyloid nucleation score result is “inactive”.

In the case of MVSNNGFIRSLVENPTPIQD, the amyloid nucleation score result is “inactive”.

VHNYHERALKKHEGTTVRNF showed an amyloid nucleation score of 0.154 ± 0.4.

On to WYMCLGSLMSIVF, for which the amyloid nucleation score result was “inactive”.

With RPYSNQGGTLITSAVLGLTK, the amyloid nucleation score result was “inactive”.

For FDERRSRGPSKSMKGLLTTY, the amyloid nucleation score entry is “inactive”.

Consider FLNLHTVCC, for which the amyloid nucleation score result is “inactive”.

In the case of IPFFIGCHNKCRVYLWVAVG, the amyloid nucleation score entry is “inactive”.

PGLLLNRMLDARFM: the amyloid nucleation score entry is “inactive”.

In the case of FVSKHRVSTIWRVISHMRGG, the amyloid nucleation score was -0.257 ± 0.98.

As to FLCMSLATRMLTFRLFPTNL, the amyloid nucleation score entry is “inactive”.

FDLFFACFPSRETGLKSCKT: the amyloid nucleation score result was “inactive”.

In turn, CCMSSIIVCYCWMYGTTKLM had an amyloid nucleation score of 0.927 ± 0.1.

Consider RDRQFSSSDVPGCEVTGRTD, for which the amyloid nucleation score was determined as 1.04 ± 0.12.

MRLMVWESLR yielded an amyloid nucleation score of 1.6 ± 0.097.

With VRVSNYTRVLVYKDRVS, the amyloid nucleation score result is “inactive”.

Take RSVLLKVHTWITKSCFSTGL: the amyloid nucleation score entry is “inactive”.

Take LQPGMDFSCRFKRLTLNMVH: the amyloid nucleation score was -0.38 ± 0.88.

FLNRSTAIWKYRLIAQRVGD: the amyloid nucleation score entry was “inactive”.

With LFPSADLATITG, the amyloid nucleation score entry was “inactive”.

As for NFRSSI, the amyloid nucleation score entry was “inactive”.

Regarding MFYVVLSYK, the amyloid nucleation score stood at 0.071 ± 0.38.

In the case of CLSLDQWWLHRYDHLVLGET, the amyloid nucleation score entry was “inactive”.

With SYILRLSHFITVGLFWAEMQ, the amyloid nucleation score result is “inactive”.

WFFETQLSLWWVNGQDLAEV: the amyloid nucleation score entry was “inactive”.

As to LDLIRY, the amyloid nucleation score entry was “inactive”.

The substance TDKRSGVKLNLYFITNTIFA displayed an amyloid nucleation score of 2.17 ± 0.06.

On to FRSTCTFHCMERSRLRISPK, for which the amyloid nucleation score result was “inactive”.

As to RDWKEDLFFF, the amyloid nucleation score entry is “inactive”.

As to KREPKS, the amyloid nucleation score result is “inactive”.

Turning to YSTMRS, the amyloid nucleation score result is “inactive”.

In the case of VSVYRRLGHIVLVIVITLAS, the amyloid nucleation score entry was “inactive”.

Turning to GTMIRQLERELSHMREVTYI, the amyloid nucleation score result was “inactive”.

Consider RYKGFINVLC, for which the amyloid nucleation score entry was “inactive”.

In the case of VLDAIVATDRL, the amyloid nucleation score entry is “inactive”.

For TVDFLSLVCVVIFRGTDWRR, the amyloid nucleation score is -1.03 ± 1.1.

For NLVWFHIATEVIERNVGGGN, the amyloid nucleation score entry was “inactive”.

Turning to CWFRLYQRNARVVDNFVNHG, the amyloid nucleation score result is “inactive”.

Turning to DFHIKERG, the amyloid nucleation score result is “inactive”.

Regarding YHVMV, the amyloid nucleation score result was “inactive”.

In the case of CMFRLMIPSIKTNAISIALC, the amyloid nucleation score was determined as 0.068 ± 0.9.

With VIDRNWRRLHSWVGLVGRAR, the amyloid nucleation score entry was “inactive”.

Substance EYGALSTFLRG returned an amyloid nucleation score of -0.337 ± 0.9.

On to TLLFY, for which the amyloid nucleation score entry is “inactive”.

For the substance VTCETSGADVVSTR, the amyloid nucleation score entry was “inactive”.

Regarding WDPGFFWIMAVARFTIACQY, the amyloid nucleation score result is “inactive”.

Regarding IHYGEYNFLGKSRWNHLFFF, the amyloid nucleation score entry is “inactive”.

Regarding RLVRIW, the amyloid nucleation score entry was “inactive”.

Take FSLRNICSGLWILSVIAFPI: the amyloid nucleation score entry was “inactive”.

On to GNALSAFPVGSFRKVVRCHG, for which the amyloid nucleation score entry is “inactive”.

For PVLSYMRMSI, the amyloid nucleation score result was “inactive”.

With IWCQRYYAIGRRVPKASYDG, the amyloid nucleation score is -0.179 ± 0.78.

For CLVTGWISSILNWFLYWNWE, the amyloid nucleation score result is “inactive”.

Turning to HFRIKNTCFKRCLSVESRKY, the amyloid nucleation score result was “inactive”.

On to KRDLGTNAFTMNRRCYQDTL, for which the amyloid nucleation score entry was “inactive”.

On to SQLKMSYRHYPMMMCVIVFS, for which the amyloid nucleation score entry is “inactive”.

For SILDCLLKMGFNTILHACWN, the amyloid nucleation score result is “inactive”.

Take IFLAGDMC: the amyloid nucleation score entry was “inactive”.

Take TKGLDILDGVCVGCLRCQVD: the amyloid nucleation score entry is “inactive”.

In the case of LKCSR, the amyloid nucleation score result is “inactive”.

For the substance MSSSSAFD, the amyloid nucleation score result is “inactive”.

LTGACVLNR gave an amyloid nucleation score of 0.106 ± 1.

In the case of TNRIMNPVYDILWSGMGQPC, the amyloid nucleation score result was “inactive”.

On to CVPGYGYRLNYSL, for which the amyloid nucleation score result was “inactive”.

VCQGFSKFLRWSQVRFLSMA came in with an amyloid nucleation score of -0.288 ± 1.4.

VLYSCERKELVIGMKVLVWE: the amyloid nucleation score result is “inactive”.

For the substance VRRLFVARCRYCQLMYFRGE, the amyloid nucleation score entry is “inactive”.

Regarding SALPE, the amyloid nucleation score entry was “inactive”.

The substance DILFTSIS yielded an amyloid nucleation score of 0.257 ± 0.41.

Consider ILQVFKIMFKRRGLSFHLGI, for which the amyloid nucleation score result was “inactive”.

For the substance GDRRER, the amyloid nucleation score worked out at 0.811 ± 0.16.

Take EIGFYCPSGAGGHRKDRVLR: the amyloid nucleation score result was “inactive”.

Consider LIYRHLGYCYNRGCWLVSWH, for which the amyloid nucleation score entry was “inactive”.

Turning to RILERVATQWRYGRCPMCDR, the amyloid nucleation score entry was “inactive”.

In turn, ALWFIHYGAG showed an amyloid nucleation score of 0.98 ± 0.24.

Regarding HWGTMNGSPSFFPITVRCGG, the amyloid nucleation score entry is “inactive”.

ITFLDWKLTTTG: the amyloid nucleation score result is “inactive”.

Take MFRHVWVTNEVLSCGYIVTG: the amyloid nucleation score entry was “inactive”.

Turning to LYRVVSLSYAVCLILSRCFT, the amyloid nucleation score result is “inactive”.

Regarding YSSLLWCKIES, the amyloid nucleation score entry is “inactive”.

On to IPGALGNKAICTRASSRRVG, for which the amyloid nucleation score result was “inactive”.

LQKCNWRRMVGRNQCWGKAR yielded an amyloid nucleation score of 0.89 ± 0.19.

For the substance VIYLKTRWNSWCPAGGVLLC, the amyloid nucleation score result was “inactive”.

Take DYKMVRYWNLE: the amyloid nucleation score result is “inactive”.

With FLDVALLKSMNCSASREVGV, the amyloid nucleation score entry is “inactive”.

(Values after the supplement of paper PMC12042874.)
